Measured values as given in US20240360242A1 (KISOJI BIOTECHNOLOGY, published 2024).

T1: recombinant human TROP2 extracellular domain (aa 1-274) comprising His tag (human, UniProt P09758 27-274)
T1 construct: Used here for all assays on recombinant human TROP2 (ELISA, immunoblot, SPR, crystal), although only some of them name the catalogue number; also called human recombinant TROP2; recombinant human TROP2 protein; not shown: His tag
T1 sequence: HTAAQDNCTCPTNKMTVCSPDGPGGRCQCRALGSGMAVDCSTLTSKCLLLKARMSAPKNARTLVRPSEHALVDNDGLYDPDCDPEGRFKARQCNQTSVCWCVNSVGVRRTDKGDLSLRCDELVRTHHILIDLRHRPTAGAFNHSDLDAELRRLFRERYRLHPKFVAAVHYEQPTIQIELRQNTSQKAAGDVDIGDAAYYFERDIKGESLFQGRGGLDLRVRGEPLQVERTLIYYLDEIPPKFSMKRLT


Each binder was assayed against T1, recombinant human TROP2 extracellular … (assay: ELISA, coated rh TROP2).
Procedure: (§1) Human TROP2 recombinant proteins were coated on 96-well ELISA plates at the concentration of 1 μg/mL. Plates were covered with adhesive plate cover and stored at 4° C. overnight. The next day, plates were washed 3× with washing buffer (PBS with 0.1% Tween™ 20). Plates were blocked with 2% fat-free BSA in washing buffer for 1 hour at 37° C. During the incubation time, the TROP2 reference antibodies, as well as the humanized variants, were diluted in the blocking buffer to the indicated concentrations. […] After blocking, the blocking buffer was removed from the wells and 100 μL of anti-TROP2 sdAbs dilutions were transferred to the corresponding wells. Plates were covered with adhesive plates cover and incubated at 37° C. for 1 hour. During the primary antibody incubation, the secondary antibody (goat anti-human IgG, HRP conjugated) was diluted 1 in 5000 with the blocking buffer. Plates were washed 3× with blocking buffer, followed by secondary antibody incubation for another 1 hour at 37° C. After the secondary antibody incubation, plates were washed 3× with washing buffer and added with 100 μL of ELISA chemiluminescent substrate (Thermofisher). The luminescence signal was detected by SpectraMax i3x at […].

| EC50 | Binder |
| --- | --- |
| 0.12 nM | KD030 (antibody, V domains shown, KD002 humanized variant) VH: QVQLQESGGGLVQPGGSLRLSCAASGFPFSSADMSWVRQAPGKGLEWVSYINADGSKTYYADTVKGRFTISRDNSKNTLYLQMNSLRAEDTAVYRCARAKLTDTHYVEDYWGQGTMVTVSS |
| 0.08 nM | KD023 (antibody, V domains shown, KD002 humanized variant) VH: QVQLVESGGGLVQPGGSLRLSCAASGFPFSSADMSWVRQAPGKGPEWVSYINADGSKTYYPDTVKGRFTISRDNAKNTLYLQMNSLRAEDTAVYYCARAKLTDTHYVEDYWGQGTQVTVSS |
| 0.09 nM | KD027 (antibody, V domains shown, KD002 humanized variant) VH: QVQLQESGGGMVQVGGSLRLSCAASGFPFSSADMSWVRQAPGKGPEWVSYINADGSKTYYPDSVKGRFTISRDNAKNTLYLQMNSLKPEDTAVYRCARAKLTDTHYVEDYWGQGTQVTVSS |
| 0.16 nM | KD029 (antibody, V domains shown, KD002 humanized variant) VH: QVQLQESGGGLVQPGGSLRLSCAASGFPFSSADMSWVRQAPGKGPEWVSYINADGSKTYYPDTVKGRFTISRDNSKNTLYLQMNNLRAEDTALYRCARAKLTDTHYVEDYWGQGTMVTVSS |
| 0.11 nM | KD025 (antibody, V domains shown, KD002 humanized variant) VH: QVQLVESGGGLVQVGGSLRLSCAASGFPFSSADMSWVRQAPGKGPEWVSYINADGSKTYYPDTVKGRFTISRDNAKNTLYLQMNSLKPEDTAVYRCARAKLTDTHYVEDYWGQGTQVTVSS |
| 0.07 nM | KD022 (antibody, V domains shown, KD002 humanized variant) VH: EVQLVESGGGLVQPGGSLRLSCAASGFPFSSADMSWVRQAPGKGPEWVSYINADGSKTYYADTVKGRFTISRDNAKNTLYLQMNSLRAEDTAVYYCARAKLTDTHYVEDYWGQGTQVTVSS |
| 0.1 nM | KD026 (antibody, V domains shown, KD002 humanized variant) VH: QVQLQESGGGMVQVGGSLRLSCAASGFPFSSADMSWVRQAPGKGPEWVSYINADGSKTYYPDTVKGRFTISRDNAKNTLYLQMNSLKPEDTAVYRCARAKLTDTHYVEDYWGQGTQVTVSS |
| 0.11 nM | KD031 (antibody, V domains shown, KD002 humanized variant) VH: EVQLQESGGGLVQPGGSLRLSCAASGFPFSSADMSWVRQAPGKGLEWVSYINADGSKTYYADTVKGRFTISRDNSKNTLYLQMNSLRAEDTAVYRCARAKLTDTHYVEDYWGQGTMVTVSS |
| 0.14 nM | KD028 (antibody, V domains shown, KD002 humanized variant) VH: EVQLLESGGGLVQPGGSLRLSCAASGFPFSSADMSWVRQAPGKGLEWVSVINADGSKTYYADTVKGRFTISRDNSKNTLYLQMNSLRAEDTAVYYCARAKLTDTHYVEDYWGQGTMVTVSS |
| 4.3 nM | KD021 (antibody, V domains shown, KD002 humanized variant) VH: EVQLVESGGGLVQPGGSLRLSCAASGFPFSSADMSWVRQAPGKGLEWVSYINADGSKTSYADTVKGRFTISRDNAKNTLYLQMNSLRAEDTAVYYCARAKLTDTHYVEDYWGQGTLVTVSS |
| 0.09 nM | KD024 (antibody, V domains shown, KD002 humanized variant) VH: QVQLVESGGGLVQPGGSLRLSCAASGFPFSSADMSWVRQAPGKGPEWVSYINADGSKTYYPDTVKGRFTISRDNAKNTLYLQMNSLRAEDTAVYRCARAKLTDTHYVEDYWGQGTQVTVSS |

Biological target: T1, recombinant human TROP2 extracellular …
Assay: ELISA, coated rh TROP2
Remark: another data set of the same source
Procedure: as §1

| Binder | EC50 | EC50% to KD005 |
| --- | --- | --- |
| KD047 (antibody, V domains shown, KD005 humanized variant) VH: QVQLLESGGGLVQPGGSLRLSCAASGFTFSGSDMSWVRQAPGKGPEWVSYITSGGTTYYADTVKGRFTISRDNSKNTLYLQMNSLRAEDTAVYRCAKSRLTDSHYVEDAWGQGTLVTVSS | 0.14 nM | 1.75 ratio to KD005 |
| KD049 (antibody, V domains shown, KD005 humanized variant) VH: QVQLQESGGGLVQPGGSLRLSCAASGFTFSGSDMSWVRQAPGKGPEWVSYITSGGTTYYPDTVKGRFTISRDNSKNTLYLQMNSLRAEDTAVYRCAKSRLTDSHYVEDAWGQGTQVTVSS | 0.14 nM | 1.75 ratio to KD005 |
| KD048 (antibody, V domains shown, KD005 humanized variant) VH: QVQLQESGGGLVQPGGSLRLSCAASGFTFSGSDMSWVRQAPGKGPEWVSYITSGGTTYYPDTVKGRFTISRDNSKNTLYLQMNSLRAEDTAVYYCAKSRLTDSHYVEDAWGQGTQVTVSS | 0.11 nM | 1.38 ratio to KD005 |

Further lines, results first:

| EC50 | EC50% to KD005 | Binder |
| --- | --- | --- |
| 0.12 nM | 1.5 ratio to KD005 | KD051 (antibody, V domains shown, KD005 humanized variant) VH: QVQLQESGGGLVQPGGSLRLSCAASGFTFSGSDMSWVRQAPGKGPEWVSYITSGGTTYYPDTVKGRFTISRDNAKNTLYLQMNSLKPDDTALYRCAKSRLTDSHYVEDAWGQGTQVTVSS |
| 0.11 nM | 1.38 ratio to KD005 | KD060 (antibody, V domains shown, KD005 humanized variant) VH: QVQLQESGGGLIQPGGSLRLSCAASGFTFSGSDMSWVRQAPGKGLEWVSYITSGGTTYYPDTVKGRFTISRDNSKNTLYLQMNSLRAEDTAVYRCAKSRLTDSHYVEDAWGQGTLVTVSS |
| 0.14 nM | 1.75 ratio to KD005 | KD062 (antibody, V domains shown, KD005 humanized variant) VH: QVQLQESGGGLIQPGGSLRLSCAASGFTFSGSDMSWVRQAPGKGLEWVSYITSGGTTYYADTVKGRFTISRDNSKNTLYLQMNSLRAEDTALYRCAKSRLTDSHYVEDAWGQGTLVTVSS |
| 0.1 nM | 1.25 ratio to KD005 | KD059 (antibody, V domains shown, KD005 humanized variant) VH: QVQLQESGGGLIQPGGSLRLSCAASGFTFSGSDMSWVRQAPGKGPEWVSYITSGGTTYYADTVKGRFTISRDNSKNTLYLQMNSLRAEDTAVYRCAKSRLTDSHYVEDAWGQGTLVTVSS |
| 0.1 nM | 1.25 ratio to KD005 | KD053 (antibody, V domains shown, KD005 humanized variant) VH: QVQLQESGGGLIQPGGSLRLSCAASGFTFSGSDMSWVRQAPGKGPEWVSYITSGGTTYYPDTVKGRFTISRDNSKNTLYLQMNSLRADDTALYRCAKSRLTDSHYVEDAWGQGTLVTVSS |
| 0.1 nM | 1.25 ratio to KD005 | KD058 (antibody, V domains shown, KD005 humanized variant) VH: QVQLQESGGGLIQPGGSLRLSCAASGFTFSGSDMSWVRQAPGKGLEWVSYITSGGTTYYADTVKGRFTISRDNSKNTLYLQMNSLRAEDTAVYYCAKSRLTDSHYVEDAWGQGTLVTVSS |
| 0.14 nM | 1.75 ratio to KD005 | KD064 (antibody, V domains shown, KD005 humanized variant with framework 2 changes) VH: QVQLQESGGGLIQPGGSLRLSCAASGFTFSGSDMSWYRQAPGKGREWVSYITSGGTTYYADTVKGRFTISRDNSKNTLYLQMNSLRAEDTAVYRCAKSRLTDSHYVEDAWGQGTLVTVSS |
| 0.12 nM | 1.5 ratio to KD005 | KD063 (antibody, V domains shown, KD005 humanized variant) VH: QVQLQESGGGLIEPGGSLRLSCAASGFTFSGSDMSWVRQAPGKGLEWVSYITSGGTTYYADTVKGRFTISRDNSKNTLYLQMNSLRAEDTAVYRCAKSRLTDSHYVEDAWGQGTQVTVSS |
| 0.12 nM | 1.5 ratio to KD005 | KD061 (antibody, V domains shown, KD005 humanized variant) VH: QVQLQESGGGLIQPGGSLRLSCAASGFTFSGSDMSWVRQAPGKGLEWVSYITSGGTTYYADTVKGRFTISRDNSKNTLYLQMNSLRADDTAVYRCAKSRLTDSHYVEDAWGQGTLVTVSS |
